According to patent publication CN105131113A (ATTOBIO BIOPHARMACEUTICAL SUZHOU CO LTD, dated 2015):

Tests used:
重组蛋白His-HPV16E7 = biological target: T1, 重组蛋白His-HPV16E7 (HPV16, UniProt P03129 2-98); test: indirect ELISA, antigen coated at 0.5μg/ml, antibody 0.1μg/ml
T1 construct: also called His-HPV16E7融合蛋白; His-HPV16E7重组蛋白; not shown: His tag
T1 sequence: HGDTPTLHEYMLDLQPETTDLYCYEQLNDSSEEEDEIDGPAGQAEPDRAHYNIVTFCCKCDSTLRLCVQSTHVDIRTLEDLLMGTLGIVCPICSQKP

His-HPV18E7融合蛋白 = biological target: T2, His-HPV18E7融合蛋白 (HPV18, UniProt P06788 1-105); test: as above
T2 construct: not shown: His tag
T2 chain: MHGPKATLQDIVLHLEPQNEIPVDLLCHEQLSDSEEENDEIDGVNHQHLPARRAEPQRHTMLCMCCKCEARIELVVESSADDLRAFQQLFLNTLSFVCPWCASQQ

多肽HPV16E7-1 = biological target: T3, 多肽HPV16E7-1 (HPV16); test: ELISA, peptide coated at 2μg/ml
T3 construct: Peptide of HPV16 E7
T3 peptide: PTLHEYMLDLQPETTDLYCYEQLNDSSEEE

多肽His-Vac = biological target: T4, 多肽His-Vac (HPV16); test: ELISA, peptide coated at 2μg/ml
T4 peptide: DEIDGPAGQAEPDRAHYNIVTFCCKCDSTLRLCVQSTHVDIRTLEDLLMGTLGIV

多肽HPV16E7-5 = biological target: T5, 多肽HPV16E7-5 (HPV16); test: ELISA, peptide coated at 2μg/ml
T5 construct: Peptide of HPV16 E7
T5 peptide: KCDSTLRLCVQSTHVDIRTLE

多肽HPV16E7-27 = biological target: T6, 多肽HPV16E7-27 (HPV16); test: ELISA, peptide coated at 2μg/ml
T6 construct: Peptide of HPV16 E7
T6 peptide: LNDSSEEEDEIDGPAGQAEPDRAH

细胞内源的HPV16E7蛋白 = biological target: T7, 细胞内源的HPV16E7蛋白 (HPV16, UniProt P03129 2-98); test: immunocytochemistry on fixed, permeabilised CaSki cells (C-33A as negative control)
T7 construct: Endogenous, intracellular HPV16 E7 in fixed and permeabilised CaSki cells (ICC) or in formalin-fixed paraffin sections of cervical tissue (IHC); as printed it has no initial Met; also called 宫颈癌细胞株CaSki表达的HPV16E7蛋白; 宫颈癌组织中的HPV16E7蛋白
T7 sequence: T1 sequence

B1: 兔源单克隆抗体RAB-034 (antibody, V domains shown)
VH: QSLEESGGRLVTPGTPLTLTCTVSGIDLSSYAMGWVRQAPGEGLDWIGSIGSSGRTYYANWAKGRFTISKTSSTTVDLKMTSLTTEDTATYFCARGVVNRSDIWGPGTLVTVSS
VL: DPMLTQTASSVSAAVGGTVTISCQSSQSVYDNNWLGWYQQKPGQPPKLLIYGASNLESGVPSRFKGSGSGTQFTLTISDVQCDDAATYYCAGGYSGNRYVFGGGTEVVVK
notes: also called 抗HPV16E7兔单抗RAB-034
- binding result (重组蛋白His-HPV16E7): binds
- binding result (His-HPV18E7融合蛋白): binds
- binding result (多肽HPV16E7-1): no binding (tested: 1μg/ml)
- binding result (多肽His-Vac): no binding (tested: 1μg/ml)
- binding result (多肽HPV16E7-5): no binding (tested: 1μg/ml)
- binding result (多肽HPV16E7-27): no binding (tested: 1μg/ml)
- binding result (细胞内源的HPV16E7蛋白): binds
